Data reported in patent US20090318350A1, “PAN-HER ANTAGONISTS AND METHODS OF USE” (priority 2006, published 2009).
Substitutions are numbered along the chain they refer to. Names may count otherwise.

Legend:
[1] = system: MCF-7 cells; conditions: stated as known; cited from earlier work
[2] = system: MCF-7 cells; assay: Cell proliferation assay (WST-1), heregulin dependent MCF-7 cells; assay type: cell-based, human; conditions: 72 hours, phage fusion or purified protein as labelled, read-out: Calculated cell proliferation (EC50)
Experimental: (§1) Phage-fusion particles displaying ligand variants were evaluated for their ability to stimulate cell proliferation in the cell proliferation assay described herein in both an EGF dependent cell line, HER5 and a heregulin dependent cell line, MCF-7.
MCF-7 cells (human breast cancer cell lines that express HER2 and HER3) were obtained from the American Type Culture Collection (ATCC). Stock cultures of MCF-7 were maintained in Eagle's MEM supplemented with 1% ITS-X (Invitrogen) and 10% fetal bovine serum.
For proliferation assays, MCF-7 cells were transferred to serum-free medium (SFM) for 24 hours and then trypsinized and suspended at 10^5 cells/mL in SFM. Fifty microliters of cell suspension (5000 cells) were plated per well in 96 well microtiter plates. Serial dilutions of HER ligands or mutant proteins were prepared at twice the final concentration in SFM and 50 ul was added to wells, bringing the final volume to 100 ul at the desired final concentration. Plates were incubated for 72 hours at 37 C in a humidified 5% CO2 atmosphere. Cell proliferation was determined by addition of 10 ul/well of WST-1 Cell Proliferation Reagent (Roche Applied Sciences, Indianapolis, Ind.) for the last three hours of the proliferation period.

[3] = system: HER5 cells; conditions: cited from earlier work
[4] = target: Her-3 (Homo sapiens, UniProt P21860); conditions: particularly for Her-3; cited from earlier work
[5] = system: HER5 cells; assay: Cell proliferation assay (WST-1), EGF dependent HER5 cells; assay type: cell-based, mouse; conditions: 48 hour proliferation, phage fusion or purified protein as labelled, read-out: Calculated cell proliferation (EC50)
Experimental: as §1
The HER5 cell line, a murine fibroblast line (derived from the NR-6 line; mouse fibroblast cells that overexpress human EGFR) that has been stably transfected to express the human EGF receptor was provided by Dr. M. C. Hung (MD Anderson Cancer Center).
Stock cultures of HER5 were propagated in D-MEM/F12 medium containing 10% fetal bovine serum, 100 units/ml of penicillin and 100 ug/ml of streptomycin in a water-jacketed incubator at 37° C. in a humidified 5% CO2 atmosphere.
For HER5 proliferation assays, the cells were changed into DMEM/F12 without serum for 24 hours. Cells were then trypsinized and suspended at 1E5 cells/ml. Serial dilutions of EGF (PeproTech, Rocky Hill, N.J.), and HER ligand polypeptide variants were prepared in serum-free DMEM/F12 at 2-fold the final concentration and plated into the wells of 96-well plates. […] Cell proliferation was determined by addition of 10 ul/well of WST-1 Cell Proliferation Reagent (Roche Applied Sciences, Indianapolis, Ind.) for the last three hours of the proliferation period. […] The amount of formazan was measured at 450 nm using a microplate reader (Dynex Technologies) with MRX Revelation software.

Sequence of Her-3 (P21860 20-1342): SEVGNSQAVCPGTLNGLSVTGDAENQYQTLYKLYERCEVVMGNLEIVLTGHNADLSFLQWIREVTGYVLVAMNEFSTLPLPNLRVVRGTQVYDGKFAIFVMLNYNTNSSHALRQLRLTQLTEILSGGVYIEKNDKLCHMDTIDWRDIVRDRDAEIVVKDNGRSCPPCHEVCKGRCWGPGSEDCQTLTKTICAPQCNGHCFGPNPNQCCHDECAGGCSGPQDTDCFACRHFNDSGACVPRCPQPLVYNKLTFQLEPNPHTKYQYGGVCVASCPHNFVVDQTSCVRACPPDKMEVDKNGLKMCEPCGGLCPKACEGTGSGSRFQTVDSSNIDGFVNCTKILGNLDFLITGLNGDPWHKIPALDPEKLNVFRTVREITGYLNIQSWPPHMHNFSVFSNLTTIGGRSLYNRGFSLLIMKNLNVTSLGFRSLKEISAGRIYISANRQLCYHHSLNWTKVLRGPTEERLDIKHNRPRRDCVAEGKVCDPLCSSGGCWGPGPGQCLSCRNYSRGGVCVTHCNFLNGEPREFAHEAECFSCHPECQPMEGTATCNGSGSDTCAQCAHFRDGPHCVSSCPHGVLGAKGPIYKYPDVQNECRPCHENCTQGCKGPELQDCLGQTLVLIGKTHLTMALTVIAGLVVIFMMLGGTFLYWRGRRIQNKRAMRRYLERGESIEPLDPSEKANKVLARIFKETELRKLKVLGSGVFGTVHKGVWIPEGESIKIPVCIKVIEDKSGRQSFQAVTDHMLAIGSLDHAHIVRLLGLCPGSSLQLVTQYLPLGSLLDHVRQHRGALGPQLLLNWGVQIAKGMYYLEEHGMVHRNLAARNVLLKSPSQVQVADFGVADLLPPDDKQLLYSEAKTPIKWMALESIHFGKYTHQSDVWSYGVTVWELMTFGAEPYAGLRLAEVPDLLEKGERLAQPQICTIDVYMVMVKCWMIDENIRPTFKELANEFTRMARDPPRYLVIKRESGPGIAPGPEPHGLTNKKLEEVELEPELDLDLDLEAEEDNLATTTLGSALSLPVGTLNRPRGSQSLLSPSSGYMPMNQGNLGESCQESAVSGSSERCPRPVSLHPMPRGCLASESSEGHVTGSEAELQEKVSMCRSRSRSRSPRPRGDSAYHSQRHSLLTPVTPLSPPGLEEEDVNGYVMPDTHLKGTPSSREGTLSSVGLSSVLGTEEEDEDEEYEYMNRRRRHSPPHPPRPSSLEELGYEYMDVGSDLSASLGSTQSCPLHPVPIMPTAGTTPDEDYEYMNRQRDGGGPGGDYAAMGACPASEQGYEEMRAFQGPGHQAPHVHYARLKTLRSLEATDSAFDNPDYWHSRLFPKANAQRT

B1: Heregulin (purified protein): heregulin, native HER3/HER4 ligand, purified protein (protein)
chain: SHLVKCAEKEKTFCVNGGECFMVKDLSNPSRYLCKCPNEFTGDRCQNYVMASFYKHLGIEFMEAEELY
For B1, the “stimulation of MCF-7 cells” value [1] is listed as “can be stimulated” and the EC50 [2] is listed as 6.15 nM.

B2: T1ER41D: T1E with arginine of position 41 replaced by aspartate (protein)
chain: VVSHFNDCPLSHDGYCLHDGVCMYIEALDKYACNCVVGYIGEDCQYRDLKWWELRAETVESCLAKPHTENSFTNVWKDDKTLDRYANYEGCLWNATGVVVCTGDETQCYGTWVPIGLAIPENEGGGSEGGGSEGGGSEGGGTKPPEYGDTPIPGYTYINPLDGTYPPGTEQNPANPNPSLEESQPLNTFMFQNNRFRNRQGALTVYTGTVTQGTDPVKTYYQYTPVSSKAMYDAYWNGKFRDCAFHSGFNEDPFVCEYQGQSSDLPQPPVNAGGGSGGGSGGGSEGGGSEGGGSEGGGSEGGGSGGGSGSGDFDYEKMANANKGAMTENADENALQSDAKGKLDSVATDYGAAIDGFIGDVSGLANGNGATGDFAGSNSQMAQVGDGDNSPLMNNFRQYLPSLPQSVECRPFVFSAGKPYEFSIDCDKINLFRGVFAFLLYVATFMYVFSTFANILRNKES
For B2, the “stimulation of cell proliferation in EGFR-dependent HER5 cells” value ([3]; isolated ligand variants, previously demonstrated) is listed as “greatly attenuated activity”.

B3: EGFwrs: EGF variant, residues 2 and 3 replaced with W and R, N-terminus NWRSE (protein)
chain: HHHHHHIEGRNWRSECPLSHDGYCLHDGVCMYIEALDKYACNCWGYIGERCQYRDLKWWELR
For B3, the binding affinity [4] is listed as “high binding affinity”.

B4: EGF (purified protein): human epidermal growth factor, 53 amino acid cytokine (PeproTech) (protein)
chain: B3 chain with W12S, R13D
For B4, the “stimulation of MCF-7 cells” value [1] is listed as “not”, the EC50 [5] is listed as 1.15 nM and the “stimulation of HER5 cells” value ([3]; stated as known) is listed as “can be stimulated”.
